Paper PMC12738837, “Structure of Trypanosoma peroxisomal import complex unveils conformational heterogeneity” (Nature Communications, 2025)
Where “and” joins values, the source holds several entries; their conditions need not be identical. Equal entries are not always repeated. Where two headings read alike, the source gives them in different places.

Tests used:
[1] = target: Pex5eTPR(Y358A) mixed beforehand with the PTS1 peptide of MDH (Trypanosoma cruzi) (UniProt Q4DPQ9); test: ITC; Pex14NTD in the syringe injected into Pex5eTPR + PTS1 peptide in the cell; 20 mM sodium phosphate, 100 mM NaCl, pH 6.5, 25 °C; independent model
[2] = target: Pex5eTPR (wild type) mixed beforehand with the PTS1 peptide of MDH (Trypanosoma cruzi) (UniProt Q4DPQ9); test: as above
[3] = target: Pex5eTPR(N353E) mixed beforehand with the PTS1 peptide of MDH (Trypanosoma cruzi) (UniProt Q4DPQ9); test: as above
[4] = target: Pex5eTPR(Y358A) (Trypanosoma cruzi) (UniProt Q4DPQ9); test: ITC; Pex14NTD (175 uM, syringe) injected into Pex5eTPR in the cell, in the absence of PTS1 peptide; 20 mM sodium phosphate, 100 mM NaCl, pH 6.5, 25 °C
[5] = target: Pex5eTPR(N353E) (Trypanosoma cruzi) (UniProt Q4DPQ9); test: as above
[6] = target: Pex5eTPR (truncated Pex5, extended TPR domain with one Wxxx(F/Y) motif; residues 314-666), Trypanosoma cruzi (Trypanosoma cruzi) (UniProt Q4DPQ9); test: as above
[7] = target: Pex5eTPR(GSGS) (Trypanosoma cruzi) (UniProt Q4DPQ9); test: as above
[8] = target: Pex5_(eTPR)(N353E) + PTS1 peptide (Trypanosoma cruzi) (UniProt Q4DPQ9); test: ITC; Pex14NTD (175 μM) injected into Pex5_(eTPR) + PTS1 (20 μM + 50 μM peptide) in the cell; 20 mM sodium phosphate, 100 mM NaCl, pH 6.5; 25 °C
[9] = target: Pex5_(eTPR)(Y358A) + PTS1 peptide (Trypanosoma cruzi) (UniProt Q4DPQ9); test: as above
[10] = target: Pex5_(eTPR) with a GSGS-spacer between the Pex5 TPR domain and Wxxx(F/Y) motif + PTS1 peptide (Trypanosoma cruzi) (UniProt Q4DPQ9); test: as above
[11] = target: Pex5_(eTPR) + PTS1 (complex of Pex5_(eTPR) with the PTS1 peptide, prepared before ITC) (Trypanosoma cruzi) (UniProt Q4DPQ9); test: as above
[12] = target: MDH(Δ62–70) (Trypanosoma cruzi); test: ITC; Pex5_(eTPR) (250 μM) injected into MDH (25 μM) in the cell; 100 mM Hepes, 150 mM NaCl, 2 mM β-mercaptoethanol, pH 7.5; 25 °C
[13] = target: MDH(GSGS) linker variant (Trypanosoma cruzi); test: as above
[14] = target: 6-FAM labeled PTS1 peptide; test: fluorescence polarisation
[15] = target: PTS1 peptide derived from MDH (NH2-ARSKL-COOH) (Trypanosoma cruzi); test: ITC; Pex5_(eTPR) with the PTS1 peptide (NH2-ARSKL-COOH); who was in the cell is not stated for the peptide; 25 °C
[16] = target: glycosomal malate dehydrogenase (MDH, residues 1–323) (Trypanosoma cruzi) (UniProt Q4DRD8); test: ITC; Pex5_(eTPR) (250 μM) injected into MDH (25 μM) in the cell; 100 mM Hepes, 150 mM NaCl, 2 mM β-mercaptoethanol, pH 7.5; 25 °C
[17] = target: glycosomal malate dehydrogenase (MDH), wild type (Trypanosoma cruzi); test: ITC; Pex5eTPR in the syringe injected into MDH in the cell; 100 mM Hepes, 150 mM NaCl, 2 mM beta-mercaptoethanol, pH 7.5, 25 °C; independent model; single titrations (replicates), each fitted by itself
[18] = target: MDH(GSGS), glycosomal malate dehydrogenase with a GSGS linker between MDH and its PTS1 (Trypanosoma cruzi); test: as above
[19] = target: 6-FAM labeled PTS1 peptide; test: fluorescence polarisation; remark: listed apart in the source
[20] = target: T1, PTS1 peptide derived from MDH (NH2-ARSKL-COOH) (Trypanosoma cruzi); test: ITC; Pex5_(eTPR) with the PTS1 peptide (NH2-ARSKL-COOH); who was in the cell is not stated for the peptide; 25 °C
T1 chain: ARSKL

[21] = target: T2, glycosomal malate dehydrogenase (MDH, residues 1–323) (Trypanosoma cruzi), Q4DRD8; test: ITC; Pex5_(eTPR) (250 μM) injected into MDH (25 μM) in the cell; 100 mM Hepes, 150 mM NaCl, 2 mM β-mercaptoethanol, pH 7.5; 25 °C
T2 chain: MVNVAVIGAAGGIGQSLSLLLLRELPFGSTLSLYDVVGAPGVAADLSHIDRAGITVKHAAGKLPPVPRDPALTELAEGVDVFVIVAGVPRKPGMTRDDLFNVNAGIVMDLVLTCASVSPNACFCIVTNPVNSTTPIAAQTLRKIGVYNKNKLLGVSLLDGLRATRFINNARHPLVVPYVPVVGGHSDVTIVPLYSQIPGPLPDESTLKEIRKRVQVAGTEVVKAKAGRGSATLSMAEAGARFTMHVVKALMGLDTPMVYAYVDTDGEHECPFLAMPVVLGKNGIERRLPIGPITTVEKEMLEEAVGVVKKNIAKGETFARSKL

[22] = target: T3, glycosomal malate dehydrogenase (MDH, residues 1–323) (Trypanosoma cruzi, UniProt Q4DRD8 1-323); test: as above; conditions: both partners purified
T3 construct: glycosomal malate dehydrogenase (MDH), Trypanosoma cruzi, residues 1-323, UniProt Q4DRD8; Tetramer (two dimers related by D2 symmetry) by cryo-EM; also called cargo; MDH tetramer; source: E. coli BL21 (DE3), purified (Ni-NTA, SEC)
T3 sequence (looked up): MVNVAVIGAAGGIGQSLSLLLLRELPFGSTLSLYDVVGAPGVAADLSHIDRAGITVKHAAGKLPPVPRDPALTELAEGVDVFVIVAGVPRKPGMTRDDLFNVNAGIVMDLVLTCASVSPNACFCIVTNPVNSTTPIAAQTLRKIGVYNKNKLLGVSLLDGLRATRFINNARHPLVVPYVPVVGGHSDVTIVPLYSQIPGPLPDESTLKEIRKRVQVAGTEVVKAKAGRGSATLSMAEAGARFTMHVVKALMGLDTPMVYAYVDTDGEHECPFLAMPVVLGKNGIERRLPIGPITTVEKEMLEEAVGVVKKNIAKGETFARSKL

With “N-terminal domain of Pex14 (Pex14NTD), wild type (domain or fragment)” the Ka [1] was 1.24e+07 M⁻¹, the Ka [2] was 1.9e+07 M⁻¹ and the Ka [3] was 2.24e+07 M⁻¹.

“N-terminal domain of Pex14 (Pex14NTD; residues 21-85), Trypanosoma cruzi (domain or fragment)” showed a Kd [4] of 119 nM, a stoichiometry N [4] of 0.762 and a Kd [5] of 48 nM. It also gave a stoichiometry N [5] of 0.738, a stoichiometry N [6] of 0.657 and a Kd [7] of 122 nM. The stoichiometry N [7] was 0.568.

For “N-terminal domain of Pex14 (Pex14NTD; residues 21–85) (domain or fragment)”, the Kd [8] was 45 nM, the dH [8] was -13.8 kcal/mol and the stoichiometry N [8] was 0.659. For the same molecule, the Kd [9] was 81 nM, the dH [9] was -13.7 kcal/mol and the stoichiometry N [9] was 0.88. The Kd [10] was 178 nM, the dH [10] was -12.6 kcal/mol and the stoichiometry N [10] was 0.7. The Kd [11] was 53 nM, the dH [11] was -15.4 kcal/mol and the stoichiometry N [11] was 0.671.

With “Pex5_(eTPR) (residues 314–666), truncated Pex5 containing an extended TPR domain with a single Wxxx(F/Y) motif (from UniProt Q4DPQ9 316-668) (domain or fragment)” the Kd [12] was 1000 nM, the dH [12] was -6.07 kcal/mol and the stoichiometry N [12] was 0.5. For the same molecule, the Kd [13] was 148 nM, the dH [13] was -5.74 kcal/mol and the stoichiometry N [13] was 0.543.

“Pex5_(eTPR) in presence of excess Pex14NTD (from UniProt Q4DPQ9 316-668) (complex)” showed a Kd [14] of 80 nM.

For “Pex5_(eTPR)(Δ470–480) (from UniProt Q4DPQ9 316-668) (domain or fragment)”, the Kd [15] was 420 nM, the dH [15] was -6.31 kcal/mol and the stoichiometry N [15] was 1.04. The Kd [16] was 102 nM, the dH [16] was -6.88 kcal/mol and the stoichiometry N [16] was 0.452.

With “Pex5eTPR, truncated Pex5 with the extended TPR domain and a single Wxxx(F/Y) motif, wild type (from UniProt Q4DPQ9 314-666) (domain or fragment)” the Ka [17] was 2.03e+06 M⁻¹ and 2.77e+06 M⁻¹ and 2.21e+06 M⁻¹, the Kd [17] was 492 nM and 361 nM and 453 nM and the stoichiometry N [17] was 0.309 and 0.622 and 0.265. For the same molecule, the Ka [18] was 5.79e+06 M⁻¹ and 8.29e+06 M⁻¹, the Kd [18] was 173 nM and 121 nM and the stoichiometry N [18] was 0.722 and 0.503.

With Pex14NTD(A48F) (domain or fragment) the Ka [2] was 8.24e+06 M⁻¹, the Kd [6] was 59 nM and the stoichiometry N [6] was 0.68. For the same molecule, the Kd [11] was 121 nM, the dH [11] was -18.3 kcal/mol and the stoichiometry N [11] was 0.608.

Pex14NTD(Q52A) (domain or fragment) gave a Ka [2] of 1.86e+07 M⁻¹, a Kd [6] of 17 nM and a stoichiometry N [6] of 0.647. The Kd [11] was 54 nM, the dH [11] was -15.7 kcal/mol and the stoichiometry N [11] was 0.664.

B1: Pex5_(eTPR) (residues 314–666), truncated Pex5 containing an extended TPR domain with a single Wxxx(F/Y) motif, Q4DPQ9 316-668 (domain or fragment)
chain: MDDGALDNAADVEEWVREYAEAQEQLQRVQNETNYPFEPNNPYMYHDKPMEEGIAMLQLANMAEAALAFEAVCQKEPENVEAWRRLGTTQAENEKDCLAIIALNHARMLDPKDIAVHAALAVSHTNEHNVGAALQSLRSWLLSQPQYEHLGLVDLREVAADEGLDEVPEENYFFAAPSEYRDCCTLLYAAVEMNPNDPQLHASLGVLHNLSHRFDEAAKNFRRAVELRPDDAHMWNKLGATLANGNRPQEALEAYNRALDINPGYVRVMYNMAVSYSNMAQYPLAAKHITRAIALQAGGTNPQGEGSRIATRGLWDLLRMTLNLMDRSDLVEASWQQDLTPFLREFGLEEMAV
modifications: not checked
Molecule B1 has a Kd [19] of 254 nM, a dH [20] of -5.02 kcal/mol and a stoichiometry N [20] of 0.933. It also gave a dH [21] of -6.33 kcal/mol and a stoichiometry N [21] of 0.398.

B2: Pex5_(eTPR)(R625A, D629A) (domain or fragment)
chain: MDDGALDNAADVEEWAREYAEAQEQLQRVQNETNYPFEPNNPYMYHDKPMEEGIAMLQLANMAEAALAFEAVCQKEPENVEAWRRLGTTQAENEKDCLAIIALNHARMLDPKDIAVHAALAVSHTNEHNVGAALQSLRSWLLSQPQYEHLGLVDLQEVAADEGLDEVPEENYFFAAPSEYRDCCTLLYAAVEMNPNDPQLHASLGVLHNLSHRFDEAAKNFRRAVELRPDDAHTWNKLGATLANGNRPQEALEAYNRALDINPGYVRVMYNMAVSYSNMAQYPLAAKHITRAIALQAGGTNPQGEGSRIATAGLWALLRMTLNLMDRSDLVEASWQQDLTPFLKEFGLEDMAV
notes: source: E. coli BL21 (DE3), purified as wild type (Ni-NTA, SEC)
For B2, the dH [22] was -5.38 ± 0.12 kcal/mol and the “stoichiometry N” value [22] was 0.5 ± 0.006.

B3: Pex5_(eTPR)(P490R) (domain or fragment)
chain: MDDGALDNAADVEEWAREYAEAQEQLQRVQNETNYPFEPNNPYMYHDKPMEEGIAMLQLANMAEAALAFEAVCQKEPENVEAWRRLGTTQAENEKDCLAIIALNHARMLDPKDIAVHAALAVSHTNEHNVGAALQSLRSWLLSQPQYEHLGLVDLQEVAADEGLDEVPEENYFFAARSEYRDCCTLLYAAVEMNPNDPQLHASLGVLHNLSHRFDEAAKNFRRAVELRPDDAHTWNKLGATLANGNRPQEALEAYNRALDINPGYVRVMYNMAVSYSNMAQYPLAAKHITRAIALQAGGTNPQGEGSRIATRGLWDLLRMTLNLMDRSDLVEASWQQDLTPFLKEFGLEDMAV
notes: as for B2
For B3, the dH [22] was -6.43 ± 0.215 kcal/mol and the “stoichiometry N” value [22] was 0.292 ± 0.006.
